Laboratory results reported in US8993714B2, “Streptavidin macromolecular adaptor and complexes thereof” (Imiplex LLC, priority 2007, dated 2015).

How the values were obtained:
[1] = Binding of purified MJ0577 to nucleotide mimicking resin Cibacron Blue; settings: 25 mM sodium phosphate buffer pH 7.6
Method: (§1) The structure of MJ0577 was determined in the context of a structural genomics project aimed at elucidating protein function through 3D structural studies. […] Because the nucleotide was not added to buffers used during purification and crystallization, the authors concluded that ATP was scavenged from the growth media. […] Because the purification protocol developed here includes heating and dialysis at pH 5.2 steps, we believed that it was possible that the protein would be isolated as the ATP-free form. To test this hypothesis, the affinity of purified MJ0577 for the nucleotide mimicking resin, Cibacron Blue, was tested following the procedure successfully applied in the purification of an MJ0577 structural relative, E. coli YnaF (Saveanu et al. 2002). […] MJ0577 was dialyzed overnight against 8 M guanidinium HCl (GuHCl) 0.2 M TRIS pH 8.2, 5 mM DTT, then dialyzed overnight against 8 M urea, and finally equilibrated to non-denaturing conditions by dialysis against 25 mM sodium phosphate buffer pH 7.6. In a separate experiment, MJ0577 was dialyzed overnight against 2 M GuHCl in 25 mM L-histidine pH 5.6, 2 M GuHCl in 25 mM CHES pH 9.8, and 2 M GuHCl in 25 mM sodium phosphate buffer pH 7.8, 20% DMSO. Half of each sample was then heated at 40° C. for one hour. […] Such results can enable the ready establishment of proper conditions for a biotin-ATP substituted SAMA.

[2] = Zarembinski et al. 1998; cited from earlier work
[3] = Binding of MJ0577 to ATP immobilized on a resin via the g-phosphate, analysis by PAGE; settings: after dialysis against GuHCl/urea
Method: as §1

- binding to Cibacron Blue resin [1]: No binding was observed
- interaction with ATP resin [3]: essentially no interaction
B1: MJ0577: protein dimer isolated from the thermostable bacterium Methanococcus jannaschii, 162 residues, SEQ ID NO: 11; SAMA template (protein, listed as Methanococcus jannaschii)
chain: MSVMYKKILYPTDFSETAEIALKHVKAFKTLKAEEVILLHVIDEREIKKRDIFSLLLGVAGLNKSVEEFENELKNKLTEEAKNKMENIKKELEDVGFKVKDIIVVGIPHEEIVKIAEDEGVDIIIMGSHGKTNLKEILLGSVTENVIKKSNKPVLVVKRKNS
modifications: dimer
notes: SAMA template
- thermostable to [2]: at least 80 °C
